Literature values, collected in US20060104951A1, “Akt and regulation of RA synovial fibroblast apoptosis” (priority 2004, published 2006).

Test system: Akt
Conditions: Cell: HL-60

B1: Focal adhesion kinase: pathway kinase whose overexpression activates Akt in HL-60 (protein, UniProt Q05397 2-1052, looked up)
Focal adhesion kinase 1: AAAYLDPNLNHTPNSSTKTHLGTGMERSPGAMERVLKVFHYFESNSEPTTWASIIRHGDATDVRGIIQKIVDSHKVKHVACYGFRLSHLRSEEVHWLHVDMGVSSVREKYELAHPPEEWKYELRIRYLPKGFLNQFTEDKPTLNFFYQQVKSDYMLEIADQVDQEIALKLGCLEIRRSYWEMRGNALEKKSNYEVLEKDVGLKRFFPKSLLDSVKAKTLRKLIQQTFRQFANLNREESILKFFEILSPVYRFDKECFKCALGSSWIISVELAIGPEEGISYLTDKGCNPTHLADFTQVQTIQYSNSEDKDRKGMLQLKIAGAPEPLTVTAPSLTIAENMADLIDGYCRLVNGTSQSFIIRPQKEGERALPSIPKLANSEKQGMRTHAVSVSETDDYAEIIDEEDTYTMPSTRDYEIQRERIELGRCIGEGQFGDVHQGIYMSPENPALAVAIKTCKNCTSDSVREKFLQEALTMRQFDHPHIVKLIGVITENPVWIIMELCTLGELRSFLQVRKYSLDLASLILYAYQLSTALAYLESKRFVHRDIAARNVLVSSNDCVKLGDFGLSRYMEDSTYYKASKGKLPIKWMAPESINFRRFTSASDVWMFGVCMWEILMHGVKPFQGVKNNDVIGRIENGERLPMPPNCPPTLYSLMTKCWAYDPSRRPRFTELKAQLSTILEEEKAQQEERMRMESRRQATVSWDSGGSDEAPPKPSRPGYPSPRSSEGFYPSPQHMVQTNHYQVSGYPGSHGITAMAGSIYPGQASLLDQTDSWNHRPQEIAMWQPNVEDSTVLDLRGIGQVLPTHLMEERLIRQQQEMEEDQRWLEKEERFLKPDVRLSRGSIDREDGSLQGPIGNQHIYQPVGKPDPAAPPKKPPRPGAPGHLGSLASLSSPADSYNEGVKLQPQEISPPPTANLDRSNDKVYENVTGLVKAVIEMSSKIQPAPPEEYVPMVKEVGLALRTLLATVDETIPLLPASTHREIEMAQKLLNSDLGELINKMKLAQQYVMTSLQQEYKKQMLTAAHALAVDAKNLLDVIDQARLKMLGQTRPH
Action: Activates Akt
